This is an account of results in article doi:10.1101/2020.05.26.116228, “Cataract-associated New Mutants S175G/H181Q of βB2-Crystallin and P24S/S31G of γD-Crystallin are Involved in Protein aggregation by Structural Changes” (bioRxiv, 2020).

This data set deals with the molecule itself. The data set can be described thus: SEC; Superdex 200 HR 10/30 in PBS (140 mM NaCl, 2.7 mM KCl, 10 mM Na2HPO4, pH 7.4), 0.5 mL/min; protein 2 mg/mL or 450 μg/100 μL (methods); markers albumin 66.4 kDa and α-lactalbumin 14.2 kDa; dimer in rapid equilibrium with monomer.

B1: S175G/H181Q βB2-crystallin (natural protein, human)
chain: ASDHQTQAGKPQSLNPKIIIFEQENFQGHSHELNGPCPNLKETGVEKAGSVLVQAGPWVGYEQANCKGEQFVFEKGEYPRWDSWTSSRRTDSLSSLRPIKVDSQEHKIILYENPNFTGKKMEIIDDDVPSFHAHGYQEKVSSVRVQSGTWVGYQYPGYRGLQYLLEKGDYKDSGDFGAPQPQVQSVRRIRDMQWHQRGAFHPSN
notes: human βB2-crystallin with the double mutation found in nuclear cataract lenses, made by site-directed mutagenesis of pGEX-4t-1 CRBB2; also called S175G/H181Q mutant; CRBB2 S175G/H181Q; source: E. coli BL21 (DE3), purified (glutathione-agarose, cleaved from GST with thrombin)
In the case of B1, the binding result is listed as “binds”.
